Laboratory results reported in publication PMC4475381, “Molecular basis for the recognition of cyclic-di-AMP by PstA, a PII-like signal transduction protein” (MicrobiologyOpen, 2015).

What was measured:
[1] = molecular target: PstA (PII-like signal transduction protein A) from Listeria monocytogenes (Listeria monocytogenes); test: SEC; gel filtration column (S-300, GE Healthcare) of purified LmPstA
[2] = molecular target: PstA (PII-like signal transduction protein A) from Listeria monocytogenes (Listeria monocytogenes); test: crystal structure; apo LmPstA (10 mg/mL); sitting drop, 20°C, 20% PEG3350, 0.1 mol/L bis-Tris pH 5.5, 0.1 mol/L ammonium acetate; 2.9 Å; trimer in the asymmetric unit
[3] = molecular target: PstA (PII-like signal transduction protein A) from Listeria monocytogenes (Listeria monocytogenes); test: crystal structure; LmPstA (20 mg/mL) cocrystallised with 2.5 mmol/L c-di-AMP; sitting drop, 20°C, 12% PEG3350, 0.1 mol/L sodium malonate pH 4.0; 1.6 Å; trimer in the asymmetric unit
PstA (LmPstA) [4] = molecular target: T1, PstA (LmPstA) (Listeria monocytogenes, UniProt Q8Y3Y7, N41A); test: DRaCALA binding titration with […]-c-di-AMP (saturation not achieved)
T1 construct: gene lmo2692; pstA N41A in pET20b, C-terminal His-tag

PstA (LmPstA) [5] = molecular target: T2, PstA (LmPstA) (Listeria monocytogenes, UniProt Q8Y3Y7, F36A); test: DRaCALA binding titration with […]-c-di-AMP
T2 construct: gene lmo2692; pstA F36A in pET20b, C-terminal His-tag

Molecule	stoichiometry N [1]	stoichiometry N [2]	stoichiometry N [3]	Kd (PstA (LmPstA) [4]) [µM]	Kd (PstA (LmPstA) [5]) [µM]
PstA (PII-like signal transduction protein A) from Listeria monocytogenes (natural protein)	3	3	3	–	–
Nc1ncnc2c1ncn2[C@@H]1O[C@@H]2COP(=O)(O)O[C@H]3[C@@H](O)[C@H](n4cnc5c(N)ncnc54)O[C@@H]3COP(=O)(O)O[C@H]2[C@H]1O [c-di-AMP]	–	–	–	~140	7
